The values that follow come from publication doi:10.1101/2024.10.04.616518.

The target in assay [1] is ixochymostatin (Ixodes scapularis). Briefly: SPR.
Assay [2] concerns the target bovine pancreatic chymotrypsin (bovine). Briefly: enzyme inhibition kinetics.

Chain of ixochymostatin (Ixodes scapularis) (B7PCV3 21-91): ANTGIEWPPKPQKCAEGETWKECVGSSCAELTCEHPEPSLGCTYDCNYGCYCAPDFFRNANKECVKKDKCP
Chain of ixochymostatin (natural protein) (B7PCV3 21-91): as above

Take bovine pancreatic chymotrypsin (enzyme): in assay [1], the Kd came to 76 pM, the koff is 1.2e-05 s⁻¹ and the kon turned out to be 160000 M⁻¹ s⁻¹.

Turning to ixochymostatin (natural protein), in assay [2], the Ki was found to be 140 pM; the Ki^app (Morrison equation) was determined as 810 pM; the apparent Ki (Ki^app), from IC50 against protease concentration was 16000 pM.
